System: MS2 coat protein
Experiment: apparent KD of MS2 coat protein; designed switch direction (-1 OFF switch, 1 ON switch): -1; higher = weaker reporter binding
How it was run: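 Designed RNA switches with common flanks were transcribed on Illumina chips by stalled E. coli RNA polymerase and titrated with SNAP-549-labelled MS2 coat protein, from 0.7 or 1.5 nM doubling to 3 µM, in Tris-HCl pH 7.5 buffer with KCl, MgCl2, BSA, DTT, tRNA and Tween-20. Steps lasted 0.8–1.5 h (lowest) to 10–20 min (highest). Titrations ran without input, with 200 uM small-molecule ligand, or with an oligonucleotide input. Normalised cluster fluorescence was curve-fitted, and apparent KD is the per-design median over clusters.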

[1] = Eterna round: R95, input ligand: FMN 200 uM
[2] = Eterna round: R95, input ligand: microRNA oligo, concentration not stated
[3] = Eterna round: R95, input ligand: none
[4] = input ligand: microRNA oligo, concentration not stated

Sequence	apparent KD of MS2 coat protein (input ligand: FMN 200 uM) [nM]	apparent KD of MS2 coat protein (input ligand: none) [nM]	apparent KD of MS2 coat protein [1] [nM]	apparent KD of MS2 coat protein [2] [nM]	apparent KD of MS2 coat protein [3] [nM]	apparent KD of MS2 coat protein [4] [nM]
ACAACCAGAGGAUAUGCGCAUAGAUCAGACUUUGUUUCUGAACAUGAGGAUCACCCAUGUAGAAGGCUGUAACC [Ex2 #79] (Eterna round: R97, puzzle: Exclusion 2)	27.7	28.7				
GCUCGACAUGAGGAUCACCCAUGUCAGGAUAUCUUUGGAGGAGGCUUGCCGAUGAUAGAGAGAAGGGACAGGUA [Eternabot (L2) Solution 70] (Eterna round: R97, puzzle: Exclusion 1)	26.7	22.4				
UAAACAAGCUAAAGAUUCUACAUGAGGAUCACCCAUGUGCUCGUCUUAUAAGGUACUGUGACGAAAGUCACGGUACC [JL TOV1 3.07] (Eterna round: R97, puzzle: Sensor, turn-off variant 1)	17.9	21.1				
AGUAUCUAUCAUGAGAGUGGUAGGUACAACAGGUGGGAAACAUGAGGAUCACCCAUGUCCUCAUUUGCUCGUCUUAU [Grok-var2-01] (puzzle: Sensor v3, turn-off variant 2)			550	144	764	
GUCUACCAGCUAGGAUAUGCAGUACAGUAAAAUGUAGAAGGAGCACGAUCCAGACAUGAGGAUCACCCAUGUGGGCGGUAGGCA [Vebiena] (Eterna round: R96, puzzle: Exclusion NG 1)	19.8	17.3				9.52
GCAAUGAGUGUGAGGAUAUGCUGGUCCUUGGAUCAGCAGAAGGCACAUGAGGAUCACCCAUGUGAAAACAUUGC [Mat - Exclusion 4 - JL Mod - D63] (puzzle: Brourd's mod of Exclusion 4)			147	17.4	23.1	
GCAUGCUAUGUCAGGAUAUACCUCUGGAUACAUAGGUAGAAGGGACAUGAGGAUCACCCAUGUCCUCAUCAUGC [Fiskers BMX 4 - 25] (puzzle: Brourd's mod of Exclusion 4)				13.5		
GUCAGGAAUGUAGGAUAUCUGCACGUGUAGUGCAGAGAAGGACAUGAGGAUCACCCAUGUAUAGUAGCUUCGGCUACACCUGAC [ENG1-A3] (Eterna round: R96, puzzle: Exclusion NG 1)	18	18.1				9.93
UUUUUAUAUGAAGGAUAUACUUAACAUGAGGAUCACCCAUGUGGUGUUGUGAGUGAGUGAGUUUAGUAGAAGGUCAAUUAUUUC [JMF's solution 17] (Eterna round: R96, puzzle: Exclusion NG 2)	537	549				292
CAGUACUGAGGAUAUACAUGAGGAUCACCCAUGUGUGUGAAUUUUAUGUGGUCGUAAUGUAGAAGGCAGUACUG [JR_Ex3_Sub027] (Eterna round: R97, puzzle: Exclusion 3)	407	86.3				
ACAUGAGGAUCACCCAUGUGCACGUAAUGGCUCAUGUAGAGAGAGGAUAUGUGUGACGAACGAGCACAGAAGGCUCAAGACUGG [Deportation 14 - Jieux - Exclusion NG 3] (Eterna round: R96, puzzle: Exclusion NG 3)	202	179				133
AGUUGGCGAGGAUAUACAUGAGGAUCACCCAUGUAAGAGAUACGAGUAAGGUAAAUAUGUAGAAGGCGCUGACA [JR_Ex3_Sub076] (Eterna round: R97, puzzle: Exclusion 3)	251	26.9				
AGGGUAAAGUUAGGAUAUGCGAAUAAUCCAGACGCAGAAGGAACAGGUCGCAUGUGAGUCACAUGAGGAUCACCCAUGUAACUA [Ceissoar] (Eterna round: R96, puzzle: Exclusion NG 1)	143	36.1				29.6
AUGAUGUUAGGAUAUCAUUGCCGGGUUUGAAAACACGGGAUUGAGAAGGAACAUGAGGAUCACCCAUGUGCCUC [EX4 C.9] (Eterna round: R97, puzzle: Exclusion 4)	118	27.5				
UAUGUUAGCACAGGAUAUUGUUAUUAUUUAAUUCAAGAAGGGUGUACAUGAGGAUCACCCAUGUUAUGGUUUUAUCUUUUACAA [JR_ExcNG1_Sub013] (Eterna round: R96, puzzle: Exclusion NG 1)						957
CUGCUCCGUGUAGGAUAUCGCCGCACCACCCGGCGAGAAGGACAUGAGGAUCACCCAUGUAUGUUAUUAUCACGUGUGGCGCGA [Design 41] (Eterna round: R96, puzzle: Exclusion NG 1)	16.4	17.1				13.9
UCAUGUUUAGAGGAUAUGAUUACUUUUGAGUAAUCAGAAGGCUAGACAUGAGGAUCACCCAUGUCAUAACAUGA [Exclusion 6 - B - 15:d] (Eterna round: R96, puzzle: Exclusion 6)	341	242				75.9
GCAGCAUAGAUAACAUACUGUUACAUGAGGAUCACCCAUGUAUAGGAUAUGGUCUGGAUUACAGGCCAGAAGGGUACAAGCUGC [Eli exng3 - 022] (Eterna round: R96, puzzle: Exclusion NG 3)	12.6	14.4				9.84

Sequence	apparent KD of MS2 coat protein (input ligand: FMN 200 uM) [nM]	apparent KD of MS2 coat protein (input ligand: none) [nM]	apparent KD of MS2 coat protein [1] [nM]	apparent KD of MS2 coat protein [2] [nM]	apparent KD of MS2 coat protein [3] [nM]	apparent KD of MS2 coat protein [4] [nM]
CCGCAAAUGGAGGAUAUCGUAUCGGAUACGAUACGAGAAGGCUAAACAUGAGGAUCACCCAUGUGUCCUAGCGG [Fiskers Ex 6 - 34] (puzzle: Exclusion 6)				10.9		
GUUAAGGUAGGAUAUACGAUAAUAGAGGGUAGAUAUAUAACACAUGAGGAUCACCCAUGUAGAAGGACCAAUUG [Mat - Exclusion 2 - Mod of my Tesla design - D58] (puzzle: Exclusion 2)			91.3	41.2	36.8	
AGAGUGCUGCGAGGAUAUACAUGAGGAUCACCCAUGUAAAUGUGUGAGGCUUUGCCUCACACAAUGUAGAAGGCGCAGUACUCA [Mat - Exclusion NG 2 - Mod of JL - D2] (Eterna round: R96, puzzle: Exclusion NG 2)	19	14.4				10.7
GUGGCACUAGUGAGGAUAUGGAAAUUGACAGAUAUCCAGAAGGCACAUGAGGAUCACCCAUGUCGAAUCCAGCA [Eternabot (L1) Solution 81] (Eterna round: R97, puzzle: Brourd's mod of Exclusion 4)	36.9	22.8				
CCCUAGGGAGGAUAUCCAAUAUAUGACAUGAGGAUCACCCAUGUUUCCACUCGUACCUCCGGAGAAGGCCCAUACC [Ex5 #10] (Eterna round: R97, puzzle: Exclusion 5)	28	28.4				
GAAGAGACAGGAUAUACAUGAGGAUCACCCAUGUGAGGAGGUUGGAGGCGGAGGAGGUGUAGAAGGGUCAAAGA [JR_Exclu3_Sub021] (puzzle: Exclusion 3)			41.6	29.7	38.8	
GUGUACCGAGGAUAUGCUGGAAUCUAGCGAAGCUAGGUUCCACAUGAGGAUCACCCAUGUAGAAGGUGGUACAC [Dot plot directed A v7] (puzzle: Exclusion 2)				55.5		
UUUUAACAUGAGGAUCACCCAUGUGAGGAUAUCGAAAUUUAUAUUAAUAUUUAUUAAUCGAGAAGGCACAUUUU [JMF 60] (puzzle: Exclusion 1)				100		
CUGGGCGGAGGAUAUACAGGUUUAAUAUAAAUUAAAUUGGGACAUGAGGAUCACCCAUGUAGAAGGUUGUUUAG [-13.6, -11.8 kcal, 32% A] (Eterna round: R97, puzzle: Exclusion 2)	23.4	22.1				
AAUUCACAUGAGGAUCACCCAUGUGAGGAUAUGGAUUCGCUGGCCGUAGCCAGUGGAUCCAGAAGGCGCGUGAU [JL-ex1-4.27] (Eterna round: R97, puzzle: Exclusion 1)	60.5	46.8				
GCUUGGCGAGGAUAUACAUGAGGAUCACCCAUGUGAGAGAAGAAAGUGAGGAAGAAAAGUAGAAGGCGCUGAGG [Mat - Exclusion 3 - Mod of Salish D61] (puzzle: Exclusion 3)			372	56.4	63	
CGAUGUUAUGUCAGGAUAUACAUUGCGAAAGCAAUGUAGAAGGGACAUGAGGAUCACCCAUGUCCUAACCAUCG [Omei A 3] (puzzle: Brourd's mod of Exclusion 4)				12.7		
UUGUGCAAAGGAUAUACGUCCGACCUCGUGGAACUGAGAAUACAUGAGGAUCACCCAUGUAGAAGGUUGCCGAG [Racereus] (puzzle: Exclusion 2)				10.5		
CCUCUACAUGAGGAUCACCCAUGUGAGGAUAUCAAAAUCAGGGCGGCUCCCUGACCCAUGAGAAGGUGCAUGGA [EX1 A.5] (Eterna round: R97, puzzle: Exclusion 1)	31	16.8				
GGCCGUAAUAAGGAUAUCACUAGCGAUAGCUAGUGAGAAGGUAUUACAUGAGGAUCACCCAUGUGAUCAGGCCA [E6/3-B3] (Eterna round: R97, puzzle: Exclusion 6)	1180	176				
GGAUCGUAUGUCAGGAUAUACCACUGGAUACAGUGGUAGAAGGGACAUGAGGAUCACCCAUGUCUUAUCGAUCC [Fiskers BMX 4 - 52] (puzzle: Brourd's mod of Exclusion 4)				14.3		
GCCAGAGCAGGAUAUUCAAUAAUUCACAUGAGGAUCACCCAUGUCCAGCGAAAGCUGGAGGGAGAAGGGCUCUGGC [Fiskers Ex 5 - 2] (puzzle: Exclusion 5)			17.5	33.4	44.3	
